According to patent US20200292553A1, “COMPOSITION FOR PREDICTING OR DIAGNOSING LIVER DISEASE, AND LIVER DISEASE PREDICTION OR DIAGNOSIS METHOD USING SAME” (SEOUL NATIONAL UNIVERSITY HOSPITAL, priority 2017, published 2020):

How the values were obtained:
Kupffer cells = experiment: GDF15 mRNA expression after palmitate treatment, Kupffer cells; assay type: cell-based; conditions: for increase in GDF15 mRNA expression: after 6 hours
Description: Primary hepatic cells were isolated and differentiated into hepatocytes, HSCs, Kupffer cells, and liver sinusoidal endothelial cells (LSECs). Kupffer cells are macrophages present in the liver, and are known to play an essential role in the initiation of inflammation. To distinguish Kupffer cells and LSECs, magnetic-activated cell sorting (MACS) was performed using the MiniMACS™ separator system (MiltenyiBiotec, Seoul, Korea). The purity of LSECs was evaluated by fluorescence-activated cell sorting using anti-PE antibody (purity of 90% or higher). Primary cells were cultured in 1.5 mL of a serum-free medium for 4 hours, and treated with 5(w/w)% of bovine serum albumin (BSA, control), 200 μM palmitate/5(w/w)% BSA solution, and 500 μM palmitate/5(w/w)% BSA, respectively. After 3 and 6 hours, cells were collected and further analyzed. Reverse-transcription polymerase chain reaction (RT-PCR) and real-time PCR were performed to assess the expression of GDF15 mRNA after palmitate treatment.

[1] = tested on: LX-2 cells (human hepatic stellate cells); experiment: rhGDF15 treatment of LX-2 cells, fibrosis markers by immunoblotting and immunofluorescence; assay type: cell-based
Description: (§1) Recombinant human GDF15 (rhGDF15; R&D Systems; 957-GD-025) was added to LX-2 cells (human hepatic stellate cells, KAIST), cultured in the presence of 100 ng/mL GDF15 and 10 ng/mL TGF-β, and primary hepatocytes, directly isolated from the mouse liver, at […] per 3×10^5 cells/6 wells. The levels of fibrosis markers, such as alpha-smooth muscle actin (α-SMA) and collagen 1, were assessed by immunoblotting, immunohistochemistry, and immunofluorescence staining.

primary hepatocytes = experiment: rhGDF15 treatment of primary hepatocytes, immunoblotting; assay type: cell-based, mouse; conditions: FIG. 4D
Description: as §1

Molecule	increase in GDF15 mRNA expression (Kupffer cells; 200 μM, P=0.009, FIG. 5B) [fold]	increase in GDF15 mRNA expression level (Kupffer cells; 500 μM, after 3 hours, P=0.004, FIG. 5A)	increase in GDF15 mRNA expression (Kupffer cells; 500 μM, P=0.032, FIG. 5B) [fold]	cell apoptosis ([1]; LX-2 cells, FIG. 4A)	expression of fibrosis markers α-SMA and collagen 1 ([1]; LX-2 cells, immunoblotting, FIG. 4A)	α-SMA expression, immunofluorescent staining ([1]; LX-2 cells, treatment for 12 hours, FIG. 4B)	acute stimulatory effect on hepatocytes ([1]; after 12 hours)	time to increase of α-SMA level after treatment ([1]; after GDF15 treatment) [h]	time to induction of SMAD phosphorylation after treatment ([1]; after GDF15 treatment) [h]	phosphorylation of SMAD2 and SMAD3 ([1]; printed as human hepatocytes, FIG. 4C (LX-2 cells))	phosphorylation of SMAD2 and SMAD3 (primary hepatocytes)
CCCCCCCCCCCCCCCC(=O)O [palmate, palmitate]	2.5	approximately 2 fold	1.5								
rhGDF15: Recombinant human GDF15 (rhGDF15; R&D Systems; 957-GD-025), growth differentiation factor 15 protein (protein, listed as Homo sapiens) ARARNGDHCPLGPGRCCRLHTVRASLEDLGWADWVLSPREVQVTMCIGACPSQFRAANMHAQIKTSLHRLKPDTVPAPCCVPASYNPMVLIQKTDTGVSLQTYDDLLAKDCHCI				not influenced	increased	high expression	remarkably reduced	≤ 12	≤ 3	increasing	upregulating
